Consider 6 substances from US20250353888A1.

Assay [1] addresses FGF receptor 2b (FGFR2b) naturally expressed on 4MBr-5 rhesus monkey bronchial epithelial cells (rhesus monkey). As to the kind of experiment: cell-based or functional assay.
For assay [2], the target named is FGFR2 receptor endogenously expressed on mammary adenocarcinoma MCF7 cells (UniProt P21802). As to the kind of experiment: cell-based or functional assay.
FGFR2 receptor endogenously expressed on mammary adenocarcinoma MCF7 cells, sequence (P21802 22-821): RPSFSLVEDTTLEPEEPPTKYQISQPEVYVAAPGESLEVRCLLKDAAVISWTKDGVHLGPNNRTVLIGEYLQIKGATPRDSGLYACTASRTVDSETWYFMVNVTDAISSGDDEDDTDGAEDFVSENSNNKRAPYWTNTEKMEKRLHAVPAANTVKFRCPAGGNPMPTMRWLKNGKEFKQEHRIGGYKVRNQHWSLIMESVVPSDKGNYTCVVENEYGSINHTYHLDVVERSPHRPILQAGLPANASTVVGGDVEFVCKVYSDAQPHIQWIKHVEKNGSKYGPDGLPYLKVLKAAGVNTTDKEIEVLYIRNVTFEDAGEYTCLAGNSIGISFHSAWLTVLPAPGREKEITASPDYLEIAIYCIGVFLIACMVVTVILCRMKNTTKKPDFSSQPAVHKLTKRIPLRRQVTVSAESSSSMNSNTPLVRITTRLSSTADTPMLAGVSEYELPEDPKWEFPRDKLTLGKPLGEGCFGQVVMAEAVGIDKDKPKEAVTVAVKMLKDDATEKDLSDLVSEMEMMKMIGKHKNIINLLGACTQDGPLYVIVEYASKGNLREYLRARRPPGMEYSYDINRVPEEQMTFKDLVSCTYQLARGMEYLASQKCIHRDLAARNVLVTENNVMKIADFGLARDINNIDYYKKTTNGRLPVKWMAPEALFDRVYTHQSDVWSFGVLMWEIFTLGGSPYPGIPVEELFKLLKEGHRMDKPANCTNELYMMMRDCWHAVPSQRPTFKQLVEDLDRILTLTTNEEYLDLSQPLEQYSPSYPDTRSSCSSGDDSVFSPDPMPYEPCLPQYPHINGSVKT

Regarding “FGF10 single-point mutant L152F (ligand)”, in assay [1], the ED50, proliferation of lung epithelial 4MBr-5 cells (resazurin) was found to be 1.4 ng/mL.

In assay [1], “FGF10-wt (recombinant mature human FGF10, Leu40-Ser208, with N-terminal His-tag and thrombin cleavage site) (ligand)” yielded an ED50 (ng/mL) determined using 4MBr-5 cells; no preincubation (control) of 0.95 ng/mL, an ED50 (ng/mL) determined using 4MBr-5 cells; protein preincubated at 37° C. for 1 day of 12.5 ng/mL, an ED50 (ng/mL) determined using 4MBr-5 cells; protein preincubated at 37° C. for 3 days of 21.1 ng/mL and an ED50 (ng/mL) determined using 4MBr-5 cells; protein preincubated at 37° C. for 7 days of 34.8 ng/mL. Besides, the ED50, proliferation of lung epithelial 4MBr-5 cells (resazurin) in assay [1] was 0.8 ng/mL.

For “FGF10-Fp+L152F (single point variant of FGF10-Fp) (ligand)”, the ED50, proliferation of 4MBr-5 cells (resazurin) in assay [1] was determined as 6.1 ng/mL.

In assay [1], “FGF10-STAB (4-point mutant of FGF10: V123I+L152F+Q175E+N181D) (ligand)” returned an ED50 (ng/mL) determined using 4MBr-5 cells; no preincubation (control) of 0.37 ng/mL, an ED50 (ng/mL) determined using 4MBr-5 cells; protein preincubated at 37° C. for 1 day of 1 ng/mL, an ED50 (ng/mL) determined using 4MBr-5 cells; protein preincubated at 37° C. for 3 days of 0.26 ng/mL and an ED50 (ng/mL) determined using 4MBr-5 cells; protein preincubated at 37° C. for 7 days of 11.1 ng/mL. The substance also showed an ED50, proliferation of 4MBr-5 cells (resazurin) in assay [1] of 0.21 ng/mL. The pKrox24 (MapERK)-DsRed reporter induction in MCF7 cells, 100 ng/mL, 24 hr (times, against FGF10-wt) in assay [2] was determined as 2.5.

In assay [1], FGF10^69-208+L152F (ligand) came in with an ED50, proliferation of 4MBr-5 cells (resazurin) of 1.9 ng/mL.

As for “FGF10 from Falco peregrinus (FGF10-Fp) (ligand)”, the ED50, proliferation of 4MBr-5 cells (resazurin) in assay [1] stood at 12.7 ng/mL.
